Values joined by “and” are separate entries in the source; they are usually repeats but may differ in a detail not shown here. Equal entries are not always repeated.
How the values were obtained:
[1] = biological target: HAdV-C5 hexon labeled with AlexaFluor594 (human adenovirus C5 (HAdV-C5)) (UniProt P04133); assay: MST; hexon labeled with AlexaFluor594 at constant amount, 16 concentrations of hLF or hLF mutant (1:1 serial dilution); 20 mM HEPES pH 7.2, 5 mM NaCl, 0.05% Tween 20; 25°C; Monolith NT.115; n = 2
HAdV-C5 hexon labeled with AlexaFluor594 (human adenovirus C5 (HAdV-C5)), sequence (P04133 whole entry): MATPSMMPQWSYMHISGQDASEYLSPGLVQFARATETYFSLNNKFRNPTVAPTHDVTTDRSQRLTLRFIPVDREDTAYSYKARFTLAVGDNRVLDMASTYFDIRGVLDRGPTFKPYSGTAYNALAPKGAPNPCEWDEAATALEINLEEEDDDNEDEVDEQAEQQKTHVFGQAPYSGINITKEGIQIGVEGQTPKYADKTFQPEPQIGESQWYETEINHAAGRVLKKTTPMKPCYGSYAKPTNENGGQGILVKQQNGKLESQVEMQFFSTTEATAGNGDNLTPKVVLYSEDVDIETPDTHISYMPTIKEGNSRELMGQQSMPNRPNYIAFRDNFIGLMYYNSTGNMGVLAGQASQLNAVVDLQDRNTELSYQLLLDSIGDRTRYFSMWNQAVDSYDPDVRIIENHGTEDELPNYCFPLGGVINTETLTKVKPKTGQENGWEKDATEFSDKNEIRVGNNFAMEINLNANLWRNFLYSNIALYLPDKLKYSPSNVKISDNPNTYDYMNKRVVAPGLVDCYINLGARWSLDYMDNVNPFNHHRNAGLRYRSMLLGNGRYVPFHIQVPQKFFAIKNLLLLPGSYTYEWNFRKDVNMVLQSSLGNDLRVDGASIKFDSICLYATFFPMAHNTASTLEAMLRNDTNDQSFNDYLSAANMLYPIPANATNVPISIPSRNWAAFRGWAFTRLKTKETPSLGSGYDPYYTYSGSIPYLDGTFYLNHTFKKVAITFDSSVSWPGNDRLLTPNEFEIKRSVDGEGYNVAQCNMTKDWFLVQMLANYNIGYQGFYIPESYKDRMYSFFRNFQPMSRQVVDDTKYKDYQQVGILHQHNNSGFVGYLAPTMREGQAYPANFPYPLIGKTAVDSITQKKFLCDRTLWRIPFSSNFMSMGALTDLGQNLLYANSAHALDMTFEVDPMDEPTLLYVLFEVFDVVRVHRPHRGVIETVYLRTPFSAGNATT

[2] = biological target: HAdV-C5 hexon (human adenovirus C5 (HAdV-C5)) (UniProt P04133); assay: single-particle cryo-EM, 2D class averages; freshly purified hexon:hLF complex (1 mg/mL) on Au Quantifoil R1.2/1.3 grids, Talos Arctica; top and bottom views only, no 3D reconstruction; 2D classes used to refine a hybrid model
HAdV-C5 hexon (human adenovirus C5 (HAdV-C5)), sequence (P04133 whole entry): as above

[3] = biological target: HAdV-C5 hexon (human adenovirus C5 (HAdV-C5)) (UniProt P04133); assay: native MS; 0.5 µM hexon:hLF complex purified in buffer D, exchanged into and diluted with 20 mM ammonium acetate pH 7.0; nanoelectrospray, Orbitrap Q Exactive UHMR
[4] = biological target: HAdV-C5 hexon (human adenovirus C5 (HAdV-C5)) (UniProt P04133); assay: native MS; 0.5 µM hexon:hLF complex purified in buffer D, exchanged into ammonium acetate pH 7.0 and diluted with water to 5.85 mM ammonium acetate; nanoelectrospray, Orbitrap Q Exactive UHMR

Which affinity relative to WT hLF [1] does the source give for “hLF mut5 (R24S/R27A/K28A/R30A) (natural protein)” here?
The affinity relative to WT hLF was less than 20%.

Which reduction of binding affinity against WT hLF [1] does the source give for “hLF mut7 (N673A/S678A) (natural protein)” here?
The reduction of binding affinity against WT hLF was 40%.

Which reduction of binding affinity against WT hLF [1] does the source give for “hLF mut8 (E687A/K691A) (natural protein)” here?
The reduction of binding affinity against WT hLF was 70%.

What does the source list for “human lactoferrin (hLF), wild type (natural protein)”?
stoichiometry N (hLF per hexon trimer) [2]: 2 and 1; stoichiometry N (hLF per hexon trimer) [3]: 1; stoichiometry N (hLF per hexon trimer) [4]: 1 and 2
